Results reported in publication PMC5437702.

Target: activatory Fc gamma receptor III (FcγRIII), mouse (mouse) (UniProt P08508)
Assay: SPR

Sequence of UniProt P08508 (P08508 31-261): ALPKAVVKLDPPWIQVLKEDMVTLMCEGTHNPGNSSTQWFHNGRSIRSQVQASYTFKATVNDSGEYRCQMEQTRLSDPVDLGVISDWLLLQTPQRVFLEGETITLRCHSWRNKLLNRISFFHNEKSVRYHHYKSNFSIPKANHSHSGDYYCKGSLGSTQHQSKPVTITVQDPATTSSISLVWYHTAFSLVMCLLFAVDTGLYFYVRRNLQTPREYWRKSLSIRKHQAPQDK

- A/I ratio (affinity for activatory FcγRIII against inhibitory FcγRIIb): < 1
Substance: anti-CD25 clone PC-61 rat IgG1 (αCD25-r1) (antibody)
